# In patent US20160361360A1:
# Target: Trop-2 (on Trop-2-expressing HCC1806 cells) (human) (UniProt P09758)
# Assay: cell-based or functional assay
# Sequence of UniProt P09758 (P09758 27-323): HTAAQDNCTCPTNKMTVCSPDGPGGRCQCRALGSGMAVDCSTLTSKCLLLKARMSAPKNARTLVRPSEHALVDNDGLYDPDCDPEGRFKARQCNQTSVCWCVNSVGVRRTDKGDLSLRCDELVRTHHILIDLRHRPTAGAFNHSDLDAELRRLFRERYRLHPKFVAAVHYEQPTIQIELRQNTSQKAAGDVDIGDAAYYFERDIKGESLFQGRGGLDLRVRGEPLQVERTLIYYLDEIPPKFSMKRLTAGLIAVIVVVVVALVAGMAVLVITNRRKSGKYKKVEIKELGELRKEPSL
substance,measurement,value
"hRS7-CAR, a human Trop-2-targeting CAR (SPCD8α-VKhRS7-(GGGGS)3-VHhRS7-HingeCD8α-TMCD8α-ICD4-1BB-ICDCD3ζ) (receptor)","Cytotoxicity by flow cytometry (percent of HCC1806 cells killed, E:T 3:1, 3 h)",42%
same,"Specific lysis of HCC1806 cells relative to mock-transfected NK-92MI (flow cytometry, E:T 3:1, 3 h)",2 fold
